Assay results: patent US10006011

How the values were obtained:
[1] = system: TALEN left L20 of FIG. 4B (Comparative Example 1) (synthetic construct); experiment: cell_activity; settings: SSA assay HEK293T, reference pair with R17
[2] = system: TALEN right R17 of FIG. 4B (Comparative Example 1) (synthetic construct); experiment: cell_activity; settings: SSA assay HEK293T, reference pair with L20

Sequence: TCCATTCCTATGACTGTAGATTTTTATCAGACTGAAGAGCTATTGTGTGAGTATA (double strand) [FIG. 4B TALEN target]
- activity [1]: 1 relative
- activity [2]: 1 relative
